Measured values from patent publication US20150344570A1 (published 2015).

T1: FcγRIIa H (FcγRIIa type H, His at position 131), extracellular domain with C-terminal His tag (human, UniProt P12318 34-217)
T1 construct: extracellular domain; expressed in FreeStyle293 cells; also called FcgRIIa H; 2aH; not shown: His tag attached to the C terminus
T1 sequence (looked up): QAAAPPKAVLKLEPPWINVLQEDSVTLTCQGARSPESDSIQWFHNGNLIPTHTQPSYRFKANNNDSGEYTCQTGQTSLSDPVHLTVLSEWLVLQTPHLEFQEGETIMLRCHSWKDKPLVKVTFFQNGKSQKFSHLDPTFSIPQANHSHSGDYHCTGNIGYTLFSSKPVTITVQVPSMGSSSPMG

T2: FcγRIIb, extracellular domain with C-terminal His tag (human, UniProt P31994 43-217)
T2 construct: extracellular domain; expressed in FreeStyle293 cells; also called FcgRIIb; 2b; not shown: His tag attached to the C terminus
T2 sequence (looked up): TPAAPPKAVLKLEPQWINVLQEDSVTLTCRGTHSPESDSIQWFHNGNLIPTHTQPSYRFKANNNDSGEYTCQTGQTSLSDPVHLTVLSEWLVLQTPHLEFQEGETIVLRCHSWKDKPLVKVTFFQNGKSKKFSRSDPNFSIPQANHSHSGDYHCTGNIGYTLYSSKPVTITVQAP


Tests used:
[1] = molecular target: T1, FcγRIIa H (FcγRIIa type H, His at …); assay: SPR (Biacore); He/Con_2aH divided by He/Con_2b (FcγRIIa H against FcγRIIb)
[2] = molecular target: T2, FcγRIIb, extracellular domain with …; assay: SPR (Biacore), antibody captured on antigen peptide chip, FcγR as analyte; relative to GpH7-A5/GpH7-B3/GpL16-k0 = 100
[3] = molecular target: T1, FcγRIIa H (FcγRIIa type H, His at …); assay: as above

Binder	He_2aH/2b (IIaH/IIb) [1] [ratio]	He/Con_2b (relative binding activity) [2]	He/Con_2aH (relative binding activity) [3]
GpH7-A5/GpH7-B3 variant S239_08L/GpL16-k0 (antibody, human IgG1, kappa, Heterodimerized antibody (He Ab): mutation in the GpH7-B3 chain only; also called He Ab) heavy 1: not shown heavy 2: not shown light: DIVMTQSPLSLPVTPGEPASISCQASESLVHSNRNTYLHWYLQKPGQSPQLLIYKVSNRFSGVPDRFSGSGSGTDFTLKISRVEAEDVGVYYCSQNTHVPPTFGQGTKVEIERTVAAPSVFIFPPSDEQLKSGTASVVCLLNNFYPREAKVQWKVDNALQSGNSQESVTEQDSKDSTYSLSSTLTLSKADYEKHKVYACEVTHQGLSSPVTKSFNRGEC	0.75	140 % of HeCon Ab (= 100)	105 % of HeCon Ab (= 100)
GpH7-A5/GpH7-B3 variant V266_07I/GpL16-k0 (antibody, human IgG1, kappa, Heterodimerized antibody (He Ab): mutation in the GpH7-B3 chain only; also called He Ab) heavy 1: not shown heavy 2: not shown light: DIVMTQSPLSLPVTPGEPASISCQASESLVHSNRNTYLHWYLQKPGQSPQLLIYKVSNRFSGVPDRFSGSGSGTDFTLKISRVEAEDVGVYYCSQNTHVPPTFGQGTKVEIERTVAAPSVFIFPPSDEQLKSGTASVVCLLNNFYPREAKVQWKVDNALQSGNSQESVTEQDSKDSTYSLSSTLTLSKADYEKHKVYACEVTHQGLSSPVTKSFNRGEC	0.69	152 % of HeCon Ab (= 100)	106 % of HeCon Ab (= 100)
GpH7-A5/GpH7-B3 variant V266_14T/GpL16-k0 (antibody, human IgG1, kappa, Heterodimerized antibody (He Ab): mutation in the GpH7-B3 chain only; also called He Ab) heavy 1: not shown heavy 2: not shown light: DIVMTQSPLSLPVTPGEPASISCQASESLVHSNRNTYLHWYLQKPGQSPQLLIYKVSNRFSGVPDRFSGSGSGTDFTLKISRVEAEDVGVYYCSQNTHVPPTFGQGTKVEIERTVAAPSVFIFPPSDEQLKSGTASVVCLLNNFYPREAKVQWKVDNALQSGNSQESVTEQDSKDSTYSLSSTLTLSKADYEKHKVYACEVTHQGLSSPVTKSFNRGEC	0.53	82.3 % of HeCon Ab (= 100)	43.3 % of HeCon Ab (= 100)
GpH7-A5/GpH7-B3 variant V266_15Y/GpL16-k0 (antibody, human IgG1, kappa, Heterodimerized antibody (He Ab): mutation in the GpH7-B3 chain only; also called He Ab) heavy 1: not shown heavy 2: not shown light: DIVMTQSPLSLPVTPGEPASISCQASESLVHSNRNTYLHWYLQKPGQSPQLLIYKVSNRFSGVPDRFSGSGSGTDFTLKISRVEAEDVGVYYCSQNTHVPPTFGQGTKVEIERTVAAPSVFIFPPSDEQLKSGTASVVCLLNNFYPREAKVQWKVDNALQSGNSQESVTEQDSKDSTYSLSSTLTLSKADYEKHKVYACEVTHQGLSSPVTKSFNRGEC	0.37	49.4 % of HeCon Ab (= 100)	18.1 % of HeCon Ab (= 100)
GpH7-A5/GpH7-B3 variant S239_10E/GpL16-k0 (antibody, human IgG1, kappa, Heterodimerized antibody (He Ab): mutation in the GpH7-B3 chain only; also called He Ab) heavy 1: not shown heavy 2: not shown light: DIVMTQSPLSLPVTPGEPASISCQASESLVHSNRNTYLHWYLQKPGQSPQLLIYKVSNRFSGVPDRFSGSGSGTDFTLKISRVEAEDVGVYYCSQNTHVPPTFGQGTKVEIERTVAAPSVFIFPPSDEQLKSGTASVVCLLNNFYPREAKVQWKVDNALQSGNSQESVTEQDSKDSTYSLSSTLTLSKADYEKHKVYACEVTHQGLSSPVTKSFNRGEC	0.62	181 % of HeCon Ab (= 100)	112 % of HeCon Ab (= 100)
GpH7-A5/GpH7-B3 variant V266_10E/GpL16-k0 (antibody, human IgG1, kappa, Heterodimerized antibody (He Ab): mutation in the GpH7-B3 chain only; also called He Ab) heavy 1: not shown heavy 2: not shown light: DIVMTQSPLSLPVTPGEPASISCQASESLVHSNRNTYLHWYLQKPGQSPQLLIYKVSNRFSGVPDRFSGSGSGTDFTLKISRVEAEDVGVYYCSQNTHVPPTFGQGTKVEIERTVAAPSVFIFPPSDEQLKSGTASVVCLLNNFYPREAKVQWKVDNALQSGNSQESVTEQDSKDSTYSLSSTLTLSKADYEKHKVYACEVTHQGLSSPVTKSFNRGEC	0.66	15.2 % of HeCon Ab (= 100)	10.1 % of HeCon Ab (= 100)
GpH7-A5/GpH7-B3 variant V266_09D/GpL16-k0 (antibody, human IgG1, kappa, Heterodimerized antibody (He Ab): mutation in the GpH7-B3 chain only; also called He Ab) heavy 1: not shown heavy 2: not shown light: DIVMTQSPLSLPVTPGEPASISCQASESLVHSNRNTYLHWYLQKPGQSPQLLIYKVSNRFSGVPDRFSGSGSGTDFTLKISRVEAEDVGVYYCSQNTHVPPTFGQGTKVEIERTVAAPSVFIFPPSDEQLKSGTASVVCLLNNFYPREAKVQWKVDNALQSGNSQESVTEQDSKDSTYSLSSTLTLSKADYEKHKVYACEVTHQGLSSPVTKSFNRGEC	0.63	10.1 % of HeCon Ab (= 100)	6.4 % of HeCon Ab (= 100)
GpH7-A5/GpH7-B3 variant S239_09D/GpL16-k0 (antibody, human IgG1, kappa, Heterodimerized antibody (He Ab): mutation in the GpH7-B3 chain only; also called He Ab) heavy 1: not shown heavy 2: not shown light: DIVMTQSPLSLPVTPGEPASISCQASESLVHSNRNTYLHWYLQKPGQSPQLLIYKVSNRFSGVPDRFSGSGSGTDFTLKISRVEAEDVGVYYCSQNTHVPPTFGQGTKVEIERTVAAPSVFIFPPSDEQLKSGTASVVCLLNNFYPREAKVQWKVDNALQSGNSQESVTEQDSKDSTYSLSSTLTLSKADYEKHKVYACEVTHQGLSSPVTKSFNRGEC	0.56	206 % of HeCon Ab (= 100)	114 % of HeCon Ab (= 100)
GpH7-A5/GpH7-B3 variant V266_08L/GpL16-k0 (antibody, human IgG1, kappa, Heterodimerized antibody (He Ab): mutation in the GpH7-B3 chain only; also called He Ab) heavy 1: not shown heavy 2: not shown light: DIVMTQSPLSLPVTPGEPASISCQASESLVHSNRNTYLHWYLQKPGQSPQLLIYKVSNRFSGVPDRFSGSGSGTDFTLKISRVEAEDVGVYYCSQNTHVPPTFGQGTKVEIERTVAAPSVFIFPPSDEQLKSGTASVVCLLNNFYPREAKVQWKVDNALQSGNSQESVTEQDSKDSTYSLSSTLTLSKADYEKHKVYACEVTHQGLSSPVTKSFNRGEC	0.44	236 % of HeCon Ab (= 100)	104 % of HeCon Ab (= 100)
GpH7-A5/GpH7-B3 variant V266_06M/GpL16-k0 (antibody, human IgG1, kappa, Heterodimerized antibody (He Ab): mutation in the GpH7-B3 chain only; also called He Ab) heavy 1: not shown heavy 2: not shown light: DIVMTQSPLSLPVTPGEPASISCQASESLVHSNRNTYLHWYLQKPGQSPQLLIYKVSNRFSGVPDRFSGSGSGTDFTLKISRVEAEDVGVYYCSQNTHVPPTFGQGTKVEIERTVAAPSVFIFPPSDEQLKSGTASVVCLLNNFYPREAKVQWKVDNALQSGNSQESVTEQDSKDSTYSLSSTLTLSKADYEKHKVYACEVTHQGLSSPVTKSFNRGEC	0.33	251 % of HeCon Ab (= 100)	83.9 % of HeCon Ab (= 100)
GpH7-A5/GpH7-B3 variant V266_04F/GpL16-k0 (antibody, human IgG1, kappa, Heterodimerized antibody (He Ab): mutation in the GpH7-B3 chain only; also called He Ab) heavy 1: not shown heavy 2: not shown light: DIVMTQSPLSLPVTPGEPASISCQASESLVHSNRNTYLHWYLQKPGQSPQLLIYKVSNRFSGVPDRFSGSGSGTDFTLKISRVEAEDVGVYYCSQNTHVPPTFGQGTKVEIERTVAAPSVFIFPPSDEQLKSGTASVVCLLNNFYPREAKVQWKVDNALQSGNSQESVTEQDSKDSTYSLSSTLTLSKADYEKHKVYACEVTHQGLSSPVTKSFNRGEC	0.44	57.6 % of HeCon Ab (= 100)	25.3 % of HeCon Ab (= 100)
GpH7-A5/GpH7-B3 variant V266_01G/GpL16-k0 (antibody, human IgG1, kappa, Heterodimerized antibody (He Ab): mutation in the GpH7-B3 chain only; also called He Ab) heavy 1: not shown heavy 2: not shown light: DIVMTQSPLSLPVTPGEPASISCQASESLVHSNRNTYLHWYLQKPGQSPQLLIYKVSNRFSGVPDRFSGSGSGTDFTLKISRVEAEDVGVYYCSQNTHVPPTFGQGTKVEIERTVAAPSVFIFPPSDEQLKSGTASVVCLLNNFYPREAKVQWKVDNALQSGNSQESVTEQDSKDSTYSLSSTLTLSKADYEKHKVYACEVTHQGLSSPVTKSFNRGEC	0.71	51.5 % of HeCon Ab (= 100)	36.7 % of HeCon Ab (= 100)
GpH7-A5/GpH7-B3 variant S239_20W/GpL16-k0 (antibody, human IgG1, kappa, Heterodimerized antibody (He Ab): mutation in the GpH7-B3 chain only; also called He Ab) heavy 1: not shown heavy 2: not shown light: DIVMTQSPLSLPVTPGEPASISCQASESLVHSNRNTYLHWYLQKPGQSPQLLIYKVSNRFSGVPDRFSGSGSGTDFTLKISRVEAEDVGVYYCSQNTHVPPTFGQGTKVEIERTVAAPSVFIFPPSDEQLKSGTASVVCLLNNFYPREAKVQWKVDNALQSGNSQESVTEQDSKDSTYSLSSTLTLSKADYEKHKVYACEVTHQGLSSPVTKSFNRGEC	0.78	45.1 % of HeCon Ab (= 100)	35.2 % of HeCon Ab (= 100)
GpH7-A5/GpH7-B3 variant V266_13S/GpL16-k0 (antibody, human IgG1, kappa, Heterodimerized antibody (He Ab): mutation in the GpH7-B3 chain only; also called He Ab) heavy 1: not shown heavy 2: not shown light: DIVMTQSPLSLPVTPGEPASISCQASESLVHSNRNTYLHWYLQKPGQSPQLLIYKVSNRFSGVPDRFSGSGSGTDFTLKISRVEAEDVGVYYCSQNTHVPPTFGQGTKVEIERTVAAPSVFIFPPSDEQLKSGTASVVCLLNNFYPREAKVQWKVDNALQSGNSQESVTEQDSKDSTYSLSSTLTLSKADYEKHKVYACEVTHQGLSSPVTKSFNRGEC	0.5	54.4 % of HeCon Ab (= 100)	27 % of HeCon Ab (= 100)
GpH7-A5/GpH7-B3 variant S239_18N/GpL16-k0 (antibody, human IgG1, kappa, Heterodimerized antibody (He Ab): mutation in the GpH7-B3 chain only; also called He Ab) heavy 1: not shown heavy 2: not shown light: DIVMTQSPLSLPVTPGEPASISCQASESLVHSNRNTYLHWYLQKPGQSPQLLIYKVSNRFSGVPDRFSGSGSGTDFTLKISRVEAEDVGVYYCSQNTHVPPTFGQGTKVEIERTVAAPSVFIFPPSDEQLKSGTASVVCLLNNFYPREAKVQWKVDNALQSGNSQESVTEQDSKDSTYSLSSTLTLSKADYEKHKVYACEVTHQGLSSPVTKSFNRGEC	0.79	119 % of HeCon Ab (= 100)	94.2 % of HeCon Ab (= 100)
GpH7-A5/GpH7-B3 variant V266_12R/GpL16-k0 (antibody, human IgG1, kappa, Heterodimerized antibody (He Ab): mutation in the GpH7-B3 chain only; also called He Ab) heavy 1: not shown heavy 2: not shown light: DIVMTQSPLSLPVTPGEPASISCQASESLVHSNRNTYLHWYLQKPGQSPQLLIYKVSNRFSGVPDRFSGSGSGTDFTLKISRVEAEDVGVYYCSQNTHVPPTFGQGTKVEIERTVAAPSVFIFPPSDEQLKSGTASVVCLLNNFYPREAKVQWKVDNALQSGNSQESVTEQDSKDSTYSLSSTLTLSKADYEKHKVYACEVTHQGLSSPVTKSFNRGEC	-1.05	-1.1 % of HeCon Ab (= 100)	1.1 % of HeCon Ab (= 100)
